Test results published in the supplement of paper PMC11780869.

Tested on: Bacillus subtilis
Experiment: cleaved RNA product abundance (RNA/gDNA barcode ratio) relative to median wild-type variant (ratio to wild type); higher = more accumulation of the downstream cleavage product
Details: cleavage site: cggR-gapA (positions -7 to +36 mutated)
How it was run: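 Reporter mRNAs (truncated aprE or tetM) carrying barcoded, mutagenized RNase Y cleavage-site windows were made from oligos with a 9% error rate and integrated into the B. subtilis chromosome. Cultures grew in LB at 37°C from OD600 0.0003 to 0.3. Cleaved RNA was gel-selected, reverse transcribed and barcode-sequenced alongside genomic DNA barcodes, with UMI collapsing. Cleaved product abundance is the RNA:gDNA barcode ratio per variant, scaled to the median wild-type variant.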

[1] = experiment (reporter, strain, medium): exp 2b: truncated aprE reporter, strain BJT200
[2] = experiment (reporter, strain, medium): exp 4a: truncated aprE reporter, strain BJT201 with 2% xylose (RNase J1 expressed)
[3] = experiment (reporter, strain, medium): exp 6: tetM reporter, strain 168

Sequence	cleaved RNA product abundance [1]	cleaved RNA product abundance [2]	cleaved RNA product abundance [3]
ACAGACGAAGGAGCCGCAAATAAGTTATAAAGGGATGAATAATCCCTCAATATAAATATCTCTCACTTATTTAAA	0.337	0.421	–
ACAGACGAAGGAGCCGCAAATAAGTTATAAAGGGATGTATAATCCCTCAATATAAATATCTCTCACTTATTTAAA	0.384	–	–
ACAGACGAAGGAGCCGCAAATAAGTTATCAAGGGATGAATAATCCCTCAATATAAATATCTCTCACTTATTTAAA	–	0.278	–
ACAGACGAAGGAGCCGCAAATAAGTTATGAAGGGATGAATAATCCCTCAATATAAATATCTCTCACTTATTTAAA	–	0.558	–
ACAGACGAAGGAGCCGCAAATAAGTTATTAAAGGATGAATAATCCCTCAATATAAATATCTCTCACTTATTTAAA	0.195	0.218	0.19
ACAGACGAAGGAGCCGCAAATAAGTTATTAAAGGATGAATAATCCCTCAATATAGATATCTCTCACTTATTTAAA	–	0.188	–
ACAGACGAAGGAGCCGCAAATAAGTTATTAACGGATGAATAATCCCTCAATATAAATATCTCTCACTTATTTAAA	0.113	0.157	–
ACAGACGAAGGAGCCGCAAATAAGTTATTAAGAGATGAATAATCCCTCAATATAAATATCTCTCACTTATTTAAA	0.12	0.13	–
ACAGACGAAGGAGCCGCAAATAAGTTATTAAGAGATGAATAATCCCTCAATATAAATATTTCTCACTTATTTAAA	–	0.124	–
ACAGACGAAGGAGCCGCAAATAAGTTATTAAGCGATGAATAATCCCTCAATATAAATATCTCTCACTTATTTAAA	–	0.134	–
ACAGACGAAGGAGCCGCAAATAAGTTATTAAGGAATGAATAATCCCTCAATATAAATATCTCTCACTTATTTAAA	0.0785	0.129	–
ACAGACGAAGGAGCCGCAAATAAGTTATTAAGGCATGAATAATCCCTCAATATAAATATCTCTCACTTATTTAAA	0.0924	0.0954	–
ACAGACGAAGGAGCCGCAAATAAGTTATTAAGGCATGACTAATCCCTCAATATAAATATCTCTCACTTATTTAAA	–	0.144	–
ACAGACGAAGGAGCCGCAAATAAGTTATTAAGGGAAGAATAATCCCTCAATATAAATATCTCTCACTTATTTAAA	0.497	0.366	–
ACAGACGAAGGAGCCGCAAATAAGTTATTAAGGGACGAATAATCCCTCAATATAAATATCTCTCACTTATTTAAA	0.65	0.802	–
ACAGACGAAGGAGCCGCAAATAAGTTATTAAGGGAGGAATAATCCCTCAATATAAATATCTCTCACTTATTTAAA	0.554	0.469	–
ACAGACGAAGGAGCCGCAAATAAGTTATTAAGGGATAAATAATCCCTCAATATAAATATCTCTCACTTATTTAAA	–	1.03	–
ACAGACGAAGGAGCCGCAAATAAGTTATTAAGGGATCAATAATCCCTCAATATAAATATCTCTCACTTATTTAAA	–	0.721	0.865
ACAGACGAAGGAGCCGCAAATAAGTTATTAAGGGATGAAAAATCCCTCAATATAAATATCTCTCACTTATTTAAA	0.805	0.841	0.882
ACAGACGAAGGAGCCGCAAATAAGTTATTAAGGGATGAACAATCCCTCAATATAAATATCTCTCACTTATTTAAA	0.897	0.924	–
ACAGACGAAGGAGCCGCAAATAAGTTATTAAGGGATGAATAAACCCTCAATATAAATATCTCTCACTTATTTAAA	–	0.39	–
ACAGACGAAGGAGCCGCAAATAAGTTATTAAGGGATGAATAACCCCTCAATATAAATATCTCTCACTTATTTAAA	0.582	0.494	–
ACAGACGAAGGAGCCGCAAATAAGTTATTAAGGGATGAATAAGCCCTCAATATAAATATCTCTCACTTATTTAAA	–	0.476	–
ACAGACGAAGGAGCCGCAAATAAGTTATTAAGGGATGAATAATACCTCAATATAAATATCTCTCACTTATTTAAA	0.112	0.165	–
ACAGACGAAGGAGCCGCAAATAAGTTATTAAGGGATGAATAATCACTCAATATAAATATCTCTCACTTATTTAAA	0.118	0.107	–
ACAGACGAAGGAGCCGCAAATAAGTTATTAAGGGATGAATAATCCATCAATATAAATATCTCTCACTTATTTAAA	0.172	0.261	–
